As a reminder, the IC50 is the concentration at which inhibition is half-maximal.

The results in this text go back to patent US9023343B2, “Phosphorylation-inhibiting agent or dephosphorylating agent for PTEN” (Miyazaki Prefecture, priority 2009, dated 2015).

One data set deals with T1, NDRG2 (Homo sapiens, UniProt Q9UN36).
T1 sequence (Q9UN36 1-357 isoform Q9UN36-2): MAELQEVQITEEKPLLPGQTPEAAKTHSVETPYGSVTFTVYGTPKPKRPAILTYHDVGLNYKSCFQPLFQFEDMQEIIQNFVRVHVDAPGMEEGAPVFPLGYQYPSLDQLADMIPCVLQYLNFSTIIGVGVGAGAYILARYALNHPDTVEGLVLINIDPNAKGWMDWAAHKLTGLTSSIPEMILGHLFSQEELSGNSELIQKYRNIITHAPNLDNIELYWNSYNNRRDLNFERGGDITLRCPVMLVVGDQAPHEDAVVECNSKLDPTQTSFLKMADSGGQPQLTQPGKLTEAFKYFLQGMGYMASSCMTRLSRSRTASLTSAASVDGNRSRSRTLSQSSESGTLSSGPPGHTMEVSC
The following applies: read-out: IC50 for enzymatic activity of NDRG2; concentration of NDRG2 protein 25 ng/ul.

A further data set addresses T2, PTEN (Homo sapiens, UniProt P60484).
T2 construct: made in house; host or cells: ATL cell line Su9T-01, transfected with PTEN/pCMV26; purified on anti-FLAG M2 gel
The data set can be described thus: In vitro dephosphorylation of FLAG-PTEN purified from ATL cell line Su9T-01, Western blot. Type of data set: biochemical. The following applies: 10 ng/ml FLAG-PTEN, 30° C., 30 minutes; phosphorylation-specific anti-PTEN antibodies. As to the method:
ATL cell line Su9T-01 of 1×10^7 cells were transfected with 20 μg of PTEN/pCMV26 expression vector by electroporation. On day 2 after the transfection, the cells were collected and 500 μl of RIPA buffer solution was added to prepare a cell extract solution. […] The reaction solution was washed with PBS buffer solution, and eluted with 3×FLAG peptide (100 μg/ml).
A reaction solution composed of 25 ng of GST or GST-NDRG2 or one unit of bacterial alkaline phosphatase (BAP) (TAKARA) was reacted with a reaction solution consisting of 20 mM magnesium acetate, 300 μg/mL BSA, 30 μM EDTA, 0.03% β-mercaptoethanol, and 10 ng/ml FLAG-PTEN at 30° C. for 30 minutes. Phosphorylation state of PTEN was analyzed by the Western blot method using anti-PTEN antibodies specific to each phosphorylation.
(Immunoblotting shows a protein as a band on a membrane.)

Data set [1] is described as follows: pNPP (p-nitrophenyl phosphate) assay of phosphatase activity. The following applies: pH 5.0, 10 mM pNPP, 30° C., 10 minutes. Type of data set: biochemical. As to the method:
The GST-NDRG2 protein (10 ng to 250 ng) was added to a reaction solution (pH 5.0) consisting of 100 mM sodium acetate, 0.8 mM DTT, and 10 mM pNPP, and the mixture was allowed to react at 30° C. for 10 minutes. After addition of 500 μl of 5 M […], the reaction was stopped and OD 410 nm of the absorption wavelength for pNP (p-Nitrophenol) was measured. A standard curve was prepared at a concentration of 0.2 to 1.6 nmol of pNP, and an enzyme activity was determined by converting the absorbance into the concentration of pNP.

T2 sequence (P60484 whole entry): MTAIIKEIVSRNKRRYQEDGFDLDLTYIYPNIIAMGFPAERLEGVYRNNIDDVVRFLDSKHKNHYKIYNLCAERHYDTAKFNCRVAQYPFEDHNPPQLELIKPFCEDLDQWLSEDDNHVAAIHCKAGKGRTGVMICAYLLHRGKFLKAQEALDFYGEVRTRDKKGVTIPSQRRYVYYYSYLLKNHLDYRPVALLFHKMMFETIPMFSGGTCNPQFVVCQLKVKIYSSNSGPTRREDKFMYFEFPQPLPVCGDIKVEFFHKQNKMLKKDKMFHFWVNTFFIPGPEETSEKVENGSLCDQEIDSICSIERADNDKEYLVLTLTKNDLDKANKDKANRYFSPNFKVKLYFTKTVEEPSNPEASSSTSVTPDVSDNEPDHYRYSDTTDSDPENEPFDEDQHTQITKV
Description for NDRG2: The GST-NDRG2 protein (10 ng to 250 ng) was added to a reaction solution (pH 5.0) consisting of 100 mM sodium acetate, 0.8 mM DTT, and 10 mM pNPP, and the mixture was allowed to react at 30° C. for 10 minutes. After addition of 500 μl of 5 M NaGH, the reaction was stopped and OD 410 nm of the absorption wavelength for pNP (p-Nitrophenol) was measured. A standard curve was prepared at a concentration of 0.2 to 1.6 nmol of pNP, and an enzyme activity was determined by converting the absorbance into the concentration of pNP.

As to `[F-].[Na+]` [sodium fluoride], the IC50 on NDRG2 was found to be 383 nM.
“BAP: bacterial alkaline phosphatase (TAKARA), positive control”: the “dephosphorylation of PTEN” value with PTEN is “dephosphorylation effects were recognized”.
On to “GST: Glutathione S-Transferase protein, negative control”, for which, in data set [1], the “production of pNP (phosphatase activity)” value is “not observed”. Besides, the “dephosphorylation of PTEN” value with PTEN is on record as “not recognized”.
